Results: paper PMC6326798

T1: GST-thCENP-K^ΔN75
T1 chain: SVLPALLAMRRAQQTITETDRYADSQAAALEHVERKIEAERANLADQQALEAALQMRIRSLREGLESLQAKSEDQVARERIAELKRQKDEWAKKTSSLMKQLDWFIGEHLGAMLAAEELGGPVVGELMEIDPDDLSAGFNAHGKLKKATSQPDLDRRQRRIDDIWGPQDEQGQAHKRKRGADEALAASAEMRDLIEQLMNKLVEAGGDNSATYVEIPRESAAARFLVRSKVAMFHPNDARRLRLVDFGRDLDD

T2: GST-thCENP-K^FL (full-length T. terrestris CENP-K with N-terminal GST)
T2 chain: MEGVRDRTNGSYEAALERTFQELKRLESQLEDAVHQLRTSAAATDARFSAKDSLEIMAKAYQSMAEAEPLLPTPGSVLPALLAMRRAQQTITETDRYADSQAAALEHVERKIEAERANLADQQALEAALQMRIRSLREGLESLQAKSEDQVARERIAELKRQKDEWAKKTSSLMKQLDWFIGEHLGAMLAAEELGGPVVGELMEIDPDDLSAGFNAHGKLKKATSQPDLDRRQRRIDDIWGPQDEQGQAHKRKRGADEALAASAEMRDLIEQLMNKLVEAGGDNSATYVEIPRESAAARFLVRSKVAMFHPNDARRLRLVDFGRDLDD

T3: GST-ctCENP-I^NT
T3 chain: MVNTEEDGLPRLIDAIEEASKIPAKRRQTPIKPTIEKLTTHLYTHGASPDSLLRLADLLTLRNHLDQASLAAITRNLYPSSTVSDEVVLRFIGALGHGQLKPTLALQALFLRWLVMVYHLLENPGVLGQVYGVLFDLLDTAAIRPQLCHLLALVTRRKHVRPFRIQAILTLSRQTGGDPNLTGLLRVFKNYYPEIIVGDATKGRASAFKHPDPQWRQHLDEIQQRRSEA


Legend:
[1] = target: full-length T. terrestris CENP-K (thCENP-K) (Thielavia terrestris); assay: AUC; sedimentation velocity, 4°C, 42 000 rpm, PBS; continuous c(s) model in SEDFIT
[2] = target: C. thermophilum CENP-I residues 1-229 (ctCENP-I^NT), untagged; assay: GST pull-down; details: in the presence of thCENP-K; parent: est. 1.0; read off a plot
[3] = target: thCENP-H/K complex (full-length thCENP-H with full-length thCENP-K) (Thielavia terrestris); assay: AUC; sedimentation velocity, 4°C, 42 000 rpm, PBS; continuous c(s) model in SEDFIT
GST-thCENP-K^ΔN75 = target: T1, GST-thCENP-K^ΔN75; assay: GST pull-down; details: chain shown with the change;; parent: est. 1.0; read off a plot
[4] = target: T2, GST-thCENP-K^FL (full-length T. …); assay: GST pull-down; details: chain shown with the change;; parent: est. 1.0; read off a plot
GST-ctCENP-I^NT = target: T3, GST-ctCENP-I^NT; assay: GST pull-down; details: chain shown with the change;; parent: est. 1.0; read off a plot

Molecule | ratio to parent (GST-thCENP-K^ΔN75) | ratio to parent [4] | ratio to parent (GST-ctCENP-I^NT) | further results
full-length T. terrestris CENP-H (thCENP-H) (natural protein) | – | – | – | stoichiometry N [1]: 1
GST-thCENP-H WT I205A; L219A | – | – | – | ratio to parent [2]: 0.63
GST-thCENP-H WT R220E; L224A | – | – | – | ratio to parent [2]: 0.2
C. thermophilum CENP-I residues 1-229 (ctCENP-I^NT), untagged (domain or fragment) | – | – | – | stoichiometry N [3]: 1
full-length T. terrestris CENP-H (thCENP-H) I205A (protein) MAATASTATPTPLPHFTEREASVLALYDRLRQLQLELALLTSQRSHGVIETSASRRAENDLAVDEARLLEARATLDLRDSVVENVVTLQPILNAVHHATHASPLERDLLPYTEQRDATATKVASLCADLDSAWGRLAELETESLRATQRNMELASEVLRLAAGTNDKTPSQLEGGRLEMELAGHEAEMKSNRRRWRIMKGAASAAVAGSGIDWVRDERLRDLVLDLPD | 0.65 | 0.94 | 1.1 | –
full-length T. terrestris CENP-H (thCENP-H) I205A; I211A (protein) MAATASTATPTPLPHFTEREASVLALYDRLRQLQLELALLTSQRSHGVIETSASRRAENDLAVDEARLLEARATLDLRDSVVENVVTLQPILNAVHHATHASPLERDLLPYTEQRDATATKVASLCADLDSAWGRLAELETESLRATQRNMELASEVLRLAAGTNDKTPSQLEGGRLEMELAGHEAEMKSNRRRWRIMKGAASAAVAGSGADWVRDERLRDLVLDLPD | 0.33 | 0.88 | 1.1 | –

More lines, main results first:

ratio to parent (GST-thCENP-K^ΔN75) | ratio to parent [4] | ratio to parent (GST-ctCENP-I^NT) | Molecule | further results
0.68 | 0.89 | – | full-length T. terrestris CENP-H (thCENP-H) L219A (protein) MAATASTATPTPLPHFTEREASVLALYDRLRQLQLELALLTSQRSHGVIETSASRRAENDLAVDEARLLEARATLDLRDSVVENVVTLQPILNAVHHATHASPLERDLLPYTEQRDATATKVASLCADLDSAWGRLAELETESLRATQRNMELASEVLRLAAGTNDKTPSQLEGGRLEMELAGHEAEMKSNRRRWRIMKGAASAIVAGSGIDWVRDERARDLVLDLPD | –
0.46 | – | 1.2 | full-length T. terrestris CENP-H (thCENP-H) I211A; L219A (protein) MAATASTATPTPLPHFTEREASVLALYDRLRQLQLELALLTSQRSHGVIETSASRRAENDLAVDEARLLEARATLDLRDSVVENVVTLQPILNAVHHATHASPLERDLLPYTEQRDATATKVASLCADLDSAWGRLAELETESLRATQRNMELASEVLRLAAGTNDKTPSQLEGGRLEMELAGHEAEMKSNRRRWRIMKGAASAIVAGSGADWVRDERARDLVLDLPD | –
– | 0.97 | 1.2 | full-length T. terrestris CENP-H (thCENP-H) W213A (protein) MAATASTATPTPLPHFTEREASVLALYDRLRQLQLELALLTSQRSHGVIETSASRRAENDLAVDEARLLEARATLDLRDSVVENVVTLQPILNAVHHATHASPLERDLLPYTEQRDATATKVASLCADLDSAWGRLAELETESLRATQRNMELASEVLRLAAGTNDKTPSQLEGGRLEMELAGHEAEMKSNRRRWRIMKGAASAIVAGSGIDAVRDERLRDLVLDLPD | –
1.1 | 0.97 | 0.32 | full-length T. terrestris CENP-H (thCENP-H) R220E (protein) MAATASTATPTPLPHFTEREASVLALYDRLRQLQLELALLTSQRSHGVIETSASRRAENDLAVDEARLLEARATLDLRDSVVENVVTLQPILNAVHHATHASPLERDLLPYTEQRDATATKVASLCADLDSAWGRLAELETESLRATQRNMELASEVLRLAAGTNDKTPSQLEGGRLEMELAGHEAEMKSNRRRWRIMKGAASAIVAGSGIDWVRDERLEDLVLDLPD | –
1.1 | – | 0.36 | full-length T. terrestris CENP-H (thCENP-H) L224A (protein) MAATASTATPTPLPHFTEREASVLALYDRLRQLQLELALLTSQRSHGVIETSASRRAENDLAVDEARLLEARATLDLRDSVVENVVTLQPILNAVHHATHASPLERDLLPYTEQRDATATKVASLCADLDSAWGRLAELETESLRATQRNMELASEVLRLAAGTNDKTPSQLEGGRLEMELAGHEAEMKSNRRRWRIMKGAASAIVAGSGIDWVRDERLRDLVADLPD | –
0.7 | 0.95 | 1.2 | full-length T. terrestris CENP-H (thCENP-H) I211A (protein) MAATASTATPTPLPHFTEREASVLALYDRLRQLQLELALLTSQRSHGVIETSASRRAENDLAVDEARLLEARATLDLRDSVVENVVTLQPILNAVHHATHASPLERDLLPYTEQRDATATKVASLCADLDSAWGRLAELETESLRATQRNMELASEVLRLAAGTNDKTPSQLEGGRLEMELAGHEAEMKSNRRRWRIMKGAASAIVAGSGADWVRDERLRDLVLDLPD | –
0.36 | 0.9 | 1.1 | full-length T. terrestris CENP-H (thCENP-H) I205A; L219A (protein) MAATASTATPTPLPHFTEREASVLALYDRLRQLQLELALLTSQRSHGVIETSASRRAENDLAVDEARLLEARATLDLRDSVVENVVTLQPILNAVHHATHASPLERDLLPYTEQRDATATKVASLCADLDSAWGRLAELETESLRATQRNMELASEVLRLAAGTNDKTPSQLEGGRLEMELAGHEAEMKSNRRRWRIMKGAASAAVAGSGIDWVRDERARDLVLDLPD | –
1.1 | – | 0.13 | full-length T. terrestris CENP-H (thCENP-H) R220E; L224A (protein) MAATASTATPTPLPHFTEREASVLALYDRLRQLQLELALLTSQRSHGVIETSASRRAENDLAVDEARLLEARATLDLRDSVVENVVTLQPILNAVHHATHASPLERDLLPYTEQRDATATKVASLCADLDSAWGRLAELETESLRATQRNMELASEVLRLAAGTNDKTPSQLEGGRLEMELAGHEAEMKSNRRRWRIMKGAASAIVAGSGIDWVRDERLEDLVADLPD | –
